Data as given in paper PMC3873296, “Crystal Structures and Molecular Dynamics Simulations of Thermophilic Malate Dehydrogenase Reveal Critical Loop Motion for Co-Substrate Binding” (PLoS ONE, 2013).

Key:
[1] = target: T1, TtMDH (malate dehydrogenase from Thermus thermophilus) (Thermus thermophilus, UniProt P10584); test: X-ray crystal structure, […] Å; type: binding; settings: apo crystal soaked with 2 mM NAD for about 30 min
T1 construct: gene mdh
T1 sequence (P10584 1-327): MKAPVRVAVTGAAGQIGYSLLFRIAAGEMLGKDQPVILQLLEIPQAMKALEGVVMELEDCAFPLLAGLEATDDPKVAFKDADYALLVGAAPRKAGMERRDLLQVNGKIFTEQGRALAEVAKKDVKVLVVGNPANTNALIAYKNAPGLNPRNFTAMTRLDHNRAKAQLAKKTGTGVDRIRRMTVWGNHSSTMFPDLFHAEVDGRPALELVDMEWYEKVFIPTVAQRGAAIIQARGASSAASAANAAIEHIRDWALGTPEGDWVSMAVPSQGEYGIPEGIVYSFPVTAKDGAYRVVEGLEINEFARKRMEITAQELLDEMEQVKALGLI

[2] = target: T1, TtMDH (malate dehydrogenase from Thermus thermophilus); test: isothermal titration calorimetry; type: binding
Excerpt: isothermal titration calorimetry on TtMDH (malate dehydrogenase from Thermus thermophilus)

purified protein = substrate: O=C(O)CC(=O)C(=O)O; test: purified protein; type: biochemical, Thermus thermophilus; settings: 0.15 mM NADH, 100 mM glycine-NaOH pH 10.0, 37 °C
[3] = target: the molecule itself; test: SEC; analytical gel filtration on Superdex 200 HR; 0.1 ml TtMDH at 8.8 mg/ml; elution compared with high-molecular-weight standards; estimated mass 61 kDa against 37 kDa for the subunit

NC(=O)c1ccc[n+]([C@@H]2O[C@H](COP(=O)(O)OP(=O)(O)OC[C@H]3O[C@@H](n4cnc5c(N)ncnc54)[C@H](O)[C@@H]3O)[C@@H](O)[C@H]2O)c1 [NAD]
X-ray crystal structure, 2.36 Å [1]: co-substrate binding site of TtMDH that could be modeled as NAD

NC(=O)C1=CN([C@@H]2O[C@H](COP(=O)(O)OP(=O)(O)OC[C@H]3O[C@@H](n4cnc5c(N)ncnc54)[C@H](O)[C@@H]3O)[C@@H](O)[C@H]2O)C=CC1 [NADH]
Kd [2]: 1160 nM

B1: Malate dehydrogenase from Thermus thermophilus (enzyme, UniProt P61977 1-327, looked up)
chain: T1 sequence (P10584 1-327)
notes: Malate dehydrogenase (EC 1.1.1.37) of Thermus thermophilus; calculated mass of the recombinant protein 36874.48 Da; also called TtMDH; MDH; source: E. coli BL21(DE3), purified (heat incubation at 70°C, Ni2+-NTA, Superdex 200 HR gel filtration)
Km (purified protein): 168.1 µM
kcat (purified protein): 281.6 s⁻¹
stoichiometry N [3]: 2
